# Experimental data as given in patent publication US11142588B2, “Polypeptides which bind C-X-C chemokine receptor type 4 (CXCR4) and methods of treating or reducing the risk of fibrosis and cancer” (AdAlta Limited, priority 2015, dated 2021).
# Residue numbers refer to the chain shown, from its start. Values joined by “and” are separate entries in the source; they are usually repeats but may differ in a detail not shown here. Equal values may be shown once. “Also recorded” adds a separate entry of the source.
# B1: AM4-746: affinity matured CXCR4 i-body, SEQ ID NO: 76 (protein)
# chain: LQVDIVPSQGEISVGESKFFLCQVAGSKSNIRISWFSPNGEKLTPNQQRISVVWNDDSSSTLTIYNANIDDAGIYKCVVYRTGGYRHRYLKLGEATVNVKIFQ
# modifications: protein sequence encoding AM4-746
# B2: AM4-1121: affinity matured CXCR4 i-body, SEQ ID NO: 48 (protein)
# chain: B1 chain with N30G, K91R
# modifications: protein sequence encoding AM4-1121
# B3: AM4-272-6H: AM4-272 with 6 His tag, containing the N-terminal sequence EAEA (protein)
# chain: EAEALQVDIVPSQGEISVGESKFFLCQVAGSYSDYRISWFSPNGEKLTPNQQRISVVWNDDSSSTLTIYNANIDDAGIYKCVVYRIGGYRHRYLVLGEATVNVKIFQ
# modifications: left off: small tags and cut ends
# How the values were obtained:
# [1] = tested on: Ramos tumor cells; assay: Apoptosis assay (annexin V / propidium iodide flow cytometry); assay type: cell-based, human; details: annexin V and propidium iodide double positive, 24 or 72 hours
# Method: The ability of an i-body of the invention to induce apoptosis in Ramos tumor cells (a human Burkitt's lymphoma cell line) was examined in an apoptosis assay according to the methods as described in Mishra M et al (2011) J Cell Mol Med 15(11):2462-77. I-bodies were incubated with Ramos cells and examined by flow cytometry after 24 or 72 hours. The cells were stained for annexin V and propidium iodide which are classic markers for apoptosis. Cells which were double positive were assessed to have become apoptotic.
# [2] = tested on: Ramos tumor cells; assay: MTT cell proliferation assay; assay type: cell-based, human; details: 24 to 72 hrs, AM3-114 at 10 μM
# Method: The ability of the CXCR4 molecules or polypeptides disclosed herein (i-bodies) to inhibit proliferation of Ramos tumor cells, a human Burkitt's lymphoma cell line expressing CXCR4 mentioned above, in vitro was examined in a MTT cell proliferation assay as described in (Lapteva (2005) Cancer Gene Therapy 12, 84-89). Cells were grown in a 96-well tissue culture plate and treated with a vehicle or the anti-CXCR4 body. The cells were then incubated with the MTT solution for approximately 4 hours. After this incubation period, a water-insoluble formazan dye is formed. After solubilization, the formazan dye is quantitated using a scanning multi-well spectrophotometer (ELISA reader).
# [3] = Bleomycin mouse model of pulmonary fibrosis; assay type: in vivo
# Excerpt: The optimal dose of Bleomycin is 2 U/mouse and the optimal time for assessing fibrocyte recruitment was confirmed at day 4. At days 4 bronchoalvelolar lavage (BAL) fluids were collected for analysis of SDF-1 concentration. One half of the lung tissue was used to make single cell suspensions of the lung and the cells used for flow cytometry and assayed for CD45+, CXCR4+ and Collagen1+ (fibrocytes). The other half of the lung tissue was Sircol stained for the presence of collagen 1 and RNA will be tested for Col-1, Col-3 and SDF-1.
# SDF-1, fibrocytes and collagen deposition were monitored at Day 4. Groups were dosed with the i-body just prior to administration with Bleomycin. One half of the lung tissue was minced and washed in PBS and used to make single cell suspensions of the lung with Collagenase A and dispase treatment. The cells were then used for flow cytometry and assayed for CD45+, CXCR4+ and Collagen1+ fibrocytes. […]
# [4] = tested on: CCL2 and CCL5 protein; assay: CCL2, CCL5, CXCL12 ELISA of fibroblast conditioned supernatants; assay type: cell-based, human; details: 48 hours
# Excerpt: Various reports indicate that CXCR4 signals in conjunction with other chemokine receptors, including CCR2.
# [5] = cited from earlier work
# [6] = tested on: HIV entry into CXCR4 expressing T-cells; assay: In vitro HIV inhibition assay; assay type: cell-based; details: Human immunodeficiency virus 1, T-cell
# [7] = tested on: normal and IPF lung fibroblasts; assay: Wound healing invasion assay of lung fibroblasts; assay type: cell-based, human
# Method: To determine the role of CXCR4 and CXCL12 in fibroblast invasion, normal and IPF lung fibroblasts were utilized in a wound healing invasion assay. ImageLock 96 well plates (Essen Bioscience) were coated with 50 μg/ml of Basement membrane extract (BME; Trevigen) for one hour at room temperature. Normal, and fibroblasts generated from lung biopsies of idiopathic pulmonary fibrosis (IPF) patients showing slow progression or rapid progression of the disease were plated (36,000 cells per well) on the BME-coated plates and incubated overnight. […] The BME was allowed to polymerize by incubating the plate at 37° C. for 15 minutes. The plates were then inserted into an IncuCyte Zoom imaging system and images were acquired every 2 hours for approximately 50 hours. Invasion was quantified using IncuCyte software (Essen Bioscience).
# [8] = cited from earlier work; remark: listed apart in the source
# [9] = target: CXCR4 (Homo sapiens, UniProt P61073); assay: Calcium flux assay (Screen Quest Fluo-8, FLIPR) in antagonist mode; assay type: cell-based; details: SDF-1 at EC80
# Method: Inhibition of Ca2+ influx by controls or i-bodies (IC50) was then determined.
# Mammalian cells stably expressing human CXCR4 receptor were produced in-house by Multispan, Inc (catalog no. C1004-1). Control agonist used was SDF-1 (Peprotech, Cat #300-28A).
# Cells were seeded in 384-well plate at an appropriate density and cultured overnight. Calcium assay was conducted according to the manufacturer's protocols. The calcium dye loading buffer was added to the cells and incubated for one hour at 37° C. Calcium flux was monitored for 120 seconds with compound injected into the wells at 19th second. In antagonist mode, carrier or compounds were preincubated with the cells for 30 minutes before calcium flux measurement with the control agonist at EC80 concentration obtained from dose-response curve.
# [10] = target: T1, human CXCR4 (CXCR4 positive lipoparticles) (Homo sapiens, UniProt P61073); assay: Biacore SPR kinetic binding to immobilised CXCR4 lipoparticles
# T1 construct: purchased Integral Molecular LEV-101B
# Method: (FIGS. 2A-2C, 5A-5C, 11A-11D, 17A-17B) Kinetic binding analysis of selected i-bodies with immobilized CXCR4 lipoparticles were performed at 25° C. using Biacore T200 instrument (GE Healthcare, Uppsala, Sweden). Streptavidin immobilization was performed in 1×HBS-P+ running buffer (10 mM HEPES, 150 mM NaCl, 0.05% [v/v] Tween-20). […] All binding experiments involving lipoparticles were performed with 1×HBS/BSA (10 mM HEPES, 150 mM NaCl, 1 mg/mL BSA) as instrument running buffer. […] In order to determine binding kinetics, serial dilutions (three-fold) of i-bodies diluted in 1×HBS/BSA were injected over immobilized lipoparticles with the association and dissociation phases monitored for 60 sec and 600 sec, respectively. A control measurement of the instrument running buffer (“zero-buffer” blank) solution was also included for double referencing purposes. Collected experimental data were processed using Scrubber software (www.biologic.com.au). Kinetic parameters (ka=association and kd=dissociation rate constants) and equilibrium dissociation constant (KD=kd/ka) were derived by fitting each set of experimental data to a Langmuir 1:1 binding model. All interaction measurements were performed in triplicate and the derived binding parameters reported as averaged values±standard deviation.
# [11] = tested on: Human platelet rich plasma; assay: SDF-1α induced platelet aggregation; assay type: cell-based; details: 10 or 20 ug/mL, 100 nM SDF-1 alpha
# Method: Experiments were carried out to examine whether the i-bodies could block platelet aggregation induced by SDF-1α. […] In the presence of negative control i-body 21H5 (or the isotype control for 12G5: mouse IgG2a). SDF-1 induced a robust and reproducible aggregation (the descending black curves, which indicate an increase in light transmission), which matches with what has been previously published.
# [12] = tested on: white blood cells, LSK and LSKSLAM cells in peripheral blood; assay: Stem cell mobilisation in mice after i.v. injection; assay type: in vivo, mouse; details: 1 and 3 hours after i.v. injection, compared to AMD3100
# Method: After 1 and 3 hours, mice were euthanized and peripheral blood (PB) harvested. Spleens were harvested and weighed to assess for splenomegaly (enlargement of the spleen). Samples were lysed to remove red blood cells and 4000 cells plated for LPP (low-proliferative potential) and CFU-HPP (colony forming unit-high proliferative potential) colonies (colony counting 7 days post-plating). The remaining cells were stained with an antibody cocktail to assess lineage-committed, stem and progenitor cell content. Flow cytometric analysis was used to calculate numbers of lineage-committed cells, haemopoietic stem and progenitor cells as well as enriched HSC per volume of PB.
# [13] = Murine air pouch model with SDF-1; assay type: in vivo, BALB/c mice; details: intraperitoneal, 30 minutes before SDF-1 6 μg
# Method: The ability of i-bodies to block inflammation was evaluated in an in vivo murine air pouch model. The subcutaneous (s.c.) air pouch is an in vivo model used to study acute and chronic inflammation (Durate et al, Models of Inflammation: Carrageenan Air Pouch, Current Protocols in Pharmacology 5.6.1-5.6.8, March 2012). Injection of irritants into an air pouch in rats or mice induces an inflammatory response that can be quantified by the volume of exudate produced, the infiltration of cells, and the release of inflammatory mediators. An air pouch, is generated by injection of sterile air under the skin of the back of the mouse. […] Air pouch lavage fluid is then analyzed for cell trafficking and cytokine release.
# The air pouch assay was performed on 7-week-old BALB/c mice. On days 1 and 3, 0.2 ml/g initial body weight (IBW) of sterile air was injected under the back skin to create the pouch. […] Thirty minutes later, SDF-1 (6 μg) was injected into the pouch. Four hours later, the mice were killed in a CO2 chamber and the air pouch was washed. Cells were collected, counted, and characterized by flow cytometry.
# [14] = tested on: CCRF-CEM cells; assay: Immunohistochemistry staining of tumours in spleen and liver of SCID/bg mice; details: 130 μg/ml
# Method: Tissues were fixed in 10% neutral buffered formalin overnight and subsequently transferred into tissue cassettes and placed in 70% ethanol. The tissues were then paraffin embedded. Slides containing 4 μm sections were deparaffinized and hydrated by incubating them in two changes of xylene for five min each, followed by two changes of 100% ethanol for 3 min each, 70% ethanol for 2 min, 50% ethanol for 2 min, and distilled water for 5 min. Antigen retrieval was performed by incubating the slides in 10 mM Citric acid solution (pH 6.0) in an 80° C. oven overnight. The slides were subsequently washed in PBS and permeabilized in 10% methanol containing 0.4% H2O2 for 30 min. […] All slides were subsequently stained with biotinylated anti-His tag antibodies (Miltenyi Biotech) and developed using an HRP-DAB cell and tissue staining kit according to the manufacturer's instructions (R&D systems).
# [15] = CXCR4 expressed on lipoparticles (Table 4)
# T1 sequence (P61073 whole entry): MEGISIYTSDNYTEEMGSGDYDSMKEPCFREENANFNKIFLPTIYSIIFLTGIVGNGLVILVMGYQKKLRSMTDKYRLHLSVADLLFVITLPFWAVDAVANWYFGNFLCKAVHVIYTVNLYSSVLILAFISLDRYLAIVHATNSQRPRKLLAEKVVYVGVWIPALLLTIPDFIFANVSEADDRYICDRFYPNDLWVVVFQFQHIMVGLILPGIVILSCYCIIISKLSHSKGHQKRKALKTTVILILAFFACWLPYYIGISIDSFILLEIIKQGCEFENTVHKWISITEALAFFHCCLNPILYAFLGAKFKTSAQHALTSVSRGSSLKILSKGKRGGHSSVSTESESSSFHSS
# Sequence of CXCR4 (P61073 whole entry): as above
molecule,measurement,setting,value
"c1cc(CN2CCCNCCNCCCNCC2)ccc1CN1CCCNCCNCCCNCC1 [AMD3100, reference compound]",induction of apoptosis in Ramos cells,[1],does not induce significant apoptosis
same,growth of RAMOS cells,[2],able to inhibit cell growth
same,recruitment of fibrocytes into the lungs,"[3]; day 4, dose not given",able to block recruitment of fibrocytes
same,collagen content of the lung (Sircol),"[3]; positive controls, dose not stated",reduction in collagen
same,CCL2 protein in IPF fibroblast conditioned supernatants,[4],markedly increased
same,development of pulmonary fibrosis in irradiated mice,[5]; Shu et al 2013,did not significantly suppress
same,bleomycin induced pulmonary fibrosis,[5]; Xu et al 2007,effectively alleviate bleomycin induced pulmonary fibrosis
same,IC50,[6],50 nM
same,"invasion / motility of normal, slow and rapid IPF lung fibroblast lines","[7]; AMD3100 12 μM, 21H5 130 μg/ml",had no effect
c1ccc(CNCc2ccc(CN3CCCNCCNCCCNCC3)cc2)nc1 [AMD3465],effectiveness relative to AMD3100 at releasing neutrophils from the bone marrow,[8]; Hatse et al 2005,10 fold
same,diet-induced atherosclerotic lesion development,"[8]; long-term inhibition, Apoe−/− and Ldlr−/− mice, Zernecke et al 2008",aggravated diet-induced atherosclerotic lesion development
B1,Calcium Inhibition EC50,[9],uM
same,Ka,[10]; [15],2.5e+06 M⁻¹ s⁻¹
same,blocking of SDF-1α induced platelet aggregation,[11],blocked aggregation to the same extent as the MAb12G5
same,mobilisation of white blood cells,[12],No mobilisation
same,cell migration / leukocyte infiltration into the air pouch,[13],inhibiting leukocyte infiltration; also recorded: inhibited cell migration
B2,Calcium Inhibition EC50,[9],uM
same,Ka,[10]; [15],1.289e+06 M⁻¹ s⁻¹ and 1.42e+06 M⁻¹ s⁻¹
same,dissociation rate constant (kd),[10]; [15],9290 M⁻¹ s⁻¹ and 9540 M⁻¹ s⁻¹
same,dissociation rate constant (kd),"[10]; off-rate, CXCR4 expressed on lipoparticles (Table 3)",0.1153
same,blocking of SDF-1α induced platelet aggregation,[11],most effective; also recorded: most efficient
same,mobilisation of white blood cells,[12],No mobilisation
same,cell migration / leukocyte infiltration into the air pouch,[13],inhibiting leukocyte infiltration; also recorded: inhibited cell migration
B3,induction of apoptosis in Ramos cells,[1],strongly induce apoptosis
same,staining of CCRF-CEM cells in spleen and liver,[14],stained CCRF-CEM cells
same,CCL2 protein in IPF fibroblast conditioned supernatants,[4],markedly increased
same,CCL5 levels in IPF lung fibroblasts,[4],increased CCL5 levels in some IPF lung fibroblasts
same,invasion of rapid-IPF (fast progressor) lung fibroblasts,[7]; 130 μg/ml,two out three
same,invasion of slow-IPF lung fibroblasts,[7]; 130 μg/ml,inhibited invasion
